Measured values published in US20260001891A1 (KEYMED BIOSCIENCES CHENGDU, published 2026).

Target: EGFR (human (endogenous on human cancer cell …, UniProt P00533 25-1210))
Test: cell-based or functional assay

B1: ADC-126 (antibody, human IgG1, V domains shown)
VH: QVQLQQSGAEVKKPGSSVKVSCKASGYTFTNYYIYWVRQAPGQGLEWIGGINPTSGGSNFNEKFKTRVTITVDESTNTAYMELSSLRSEDTAFYFCARQGLWFDSDGRGFDFWGQGSTVTVSS
VL: DIQMTQSPSSLSASVGDRVTITCRSSQNIVHSNGNTYLDWYQQTPGKAPKLLIYKVSNRFSGVPSRFSGSGSGTDFTFTISSLQPEDIATYYCFQYSHVPWTFGQGTKLQITR
modifications: linker-drug LD-105 (maleimide) coupled to cysteine sulfhydryls after TCEP reduction; average drug loading y=4.96 per antibody; positions not given
**Q.** Which “IC50 of in vitro proliferation inhibition, EGFR-positive MDA-MB-468 cells (CCK8, 6 days)” value does the source give for B1 here?
**A.** 0.21 nM

B2: ADC-128 (antibody, human IgG1, V domains shown)
VH: QVQLQQSGAEVKKPGSSVKVSCKASGYTFTNYYIYWVRQAPGQGLEWIGGINPTSGGSNFNEKFKTRVTITVDESTNTAYMELSSLRSEDTAFYFCARQGLWFDSDGRGFDFWGQGSTVTVSS
VL: DIQMTQSPSSLSASVGDRVTITCRSSQNIVHSNGNTYLDWYQQTPGKAPKLLIYKVSNRFSGVPSRFSGSGSGTDFTFTISSLQPEDIATYYCFQYSHVPWTFGQGTKLQITR
modifications: linker-drug LD-13 coupled to cysteine sulfhydryls after TCEP reduction; average drug loading y=7.62 per antibody; positions not given
**Q.** How did the “IC50 of in vitro proliferation inhibition, EGFR-positive MDA-MB-468 cells (CCK8, 6 days)” value turn out when B2 was run?
**A.** 0.21 nM

B3: ADC-129 (antibody, human IgG1, V domains shown)
VH: QVQLQQSGAEVKKPGSSVKVSCKASGYTFTNYYIYWVRQAPGQGLEWIGGINPTSGGSNFNEKFKTRVTITVDESTNTAYMELSSLRSEDTAFYFCARQGLWFDSDGRGFDFWGQGSTVTVSS
VL: DIQMTQSPSSLSASVGDRVTITCRSSQNIVHSNGNTYLDWYQQTPGKAPKLLIYKVSNRFSGVPSRFSGSGSGTDFTFTISSLQPEDIATYYCFQYSHVPWTFGQGTKLQITR
modifications: linker-drug LD-99 coupled to cysteine sulfhydryls after TCEP reduction; average drug loading y=7.11 per antibody; positions not given
**Q.** With B3 as the binder, how does the “IC50 of in vitro proliferation inhibition, EGFR-positive MDA-MB-468 cells (CCK8, 6 days)” value read?
**A.** 0.2 nM
